From patent publication US5714144A, “Human tissue-type plasminogen activator variant” (Genentech, Inc., priority 1995, dated 1998)

B1: ceruloplasmin: ceruloplasmin after removal of sialic acid (protein, UniProt P00450 20-1065, looked up)
Ceruloplasmin: KEKHYYIGIIETTWDYASDHGEKKLISVDTEHSNIYLQNGPDRIGRLYKKALYLQYTDETFRTTIEKPVWLGFLGPIIKAETGDKVYVHLKNLASRPYTFHSHGITYYKEHEGAIYPDNTTDFQRADDKVYPGEQYTYMLLATEEQSPGEGDGNCVTRIYHSHIDAPKDIASGLIGPLIICKKDSLDKEKEKHIDREFVVMFSVVDENFSWYLEDNIKTYCSEPEKVDKDNEDFQESNRMYSVNGYTFGSLPGLSMCAEDRVKWYLFGMGNEVDVHAAFFHGQALTNKNYRIDTINLFPATLFDAYMVAQNPGEWMLSCQNLNHLKAGLQAFFQVQECNKSSSKDNIRGKHVRHYYIAAEEIIWNYAPSGIDIFTKENLTAPGSDSAVFFEQGTTRIGGSYKKLVYREYTDASFTNRKERGPEEEHLGILGPVIWAEVGDTIRVTFHNKGAYPLSIEPIGVRFNKNNEGTYYSPNYNPQSRSVPPSASHVAPTETFTYEWTVPKEVGPTNADPVCLAKMYYSAVEPTKDIFTGLIGPMKICKKGSLHANGRQKDVDKEFYLFPTVFDENESLLLEDNIRMFTTAPDQVDKEDEDFQESNKMHSMNGFMYGNQPGLTMCKGDSVVWYLFSAGNEADVHGIYFSGNTYLWRGERRDTANLFPQTSLTLHMWPDTEGTFNVECLTTDHYTGGMKQKYTVNQCRRQSEDSTFYLGERTYYIAAVEVEWDYSPQREWEKELHHLQEQNVSNAFLDKGEFYIGSKYKKVVYRQYTDSTFRVPVERKAEEEHLGILGPQLHADVGDKVKIIFKNMATRPYSIHAHGVQTESSTVTPTLPGETLTYVWKIPERSGAGTEDSACIPWAYYSTVDQVKDLYSGLIGPLIVCRRPYLKVFNPRRKLEFALLFLVFDENESWYLDDNIKTYSDHPEKVNKDDEEFIESNKMHAINGRMFGNLQGLTMHVGDEVNWYLMGMGNEIDLHTVHFHGHSFQYKHRGVYSSDVFDIFPGTYQTLEMFPRTPGIWLLHCHVTDHIHAGMETTYTVLQNEDTKSG
modifications: desialylated
notes: ceruloplasmin after removal of sialic acid
B2: glutamine117 glutamic acid275 t-PA: t-PA Carbohydrate Variant Gln117 Glu275 Equivalent (protein, UniProt P00750 36-562, looked up, variant N117Q R275E)
Tissue-type plasminogen …: SYQVICRDEKTQMIYQQHQSWLRPVLRSNRVEYCWCNSGRAQCHSVPVKSCSEPRCFNGGTCQQALYFSDFVCQCPEGFAGKCCEIDTRATCYEDQGISYRGTWSTAESGAECTNWQSSALAQKPYSGRRPDAIRLGLGNHNYCRNPDRDSKPWCYVFKAGKYSSEFCSTPACSEGNSDCYFGNGSAYRGTHSLTESGASCLPWNSMILIGKVYTAQNPSAQALGLGKHNYCRNPDGDAKPWCHVLKNRRLTWEYCDVPSCSTCGLRQYSQPQFEIKGGLFADIASHPWQAAIFAKHRRSPGERFLCGGILISSCWILSAAHCFQERFPPHHLTVILGRTYRVVPGEEEQKFEVEKYIVHKEFDDDTYDNDIALLQLKSDSSRCAQESSVVRTVCLPPADLQLPDWTECELSGYGKHEALSPFYSERLKEAHVRLYPSSRCTSQHLLNRTVTDNMLCAGDTRSGGPQANLHDACQGDSGGPLVCLNDGRMTLVGIISWGLGCGQKDVPGVYTKVTNYLDWIRDNMRP

Key:
[1] = removal of sialic acid or chemical modification of carbohydrate; cited from earlier work
[2] = tested on: fibrin; conditions: versus t-PA control

| Molecule | half-life change [1] | fibrin stimulation and specific activity [2] |
| --- | --- | --- |
| B1 | decreases its half-life dramatically | – |
| B2 | – | superior to t-PA control in fibrin stimulation and specific activity |
